Data from article doi:10.1101/2020.03.16.993188 (bioRxiv, 2020).
Like-named read-outs stand apart in the source and are kept apart here.

B1: Synechocystis sp. PCC 6803 GCS T-protein (aminomethyltransferase), recombinant (enzyme)
chain: MANLFPALRTPLYNLITEQTTKLTTFGGWEMPVQFAGLKQEHQAVREKVGMFDISHMGKFVLTGQKVLAALQSLVPSDLDRLTPGKAQYTVLLNAQGGIIDDIIVYDQGKNPEGQERVTLIVNAATTVKDKQWLLEHLPEEIDFQDLSREKVLIALQGPEALTILQPLVDQNLGELPAFGHLEAEFLREKAFIARTGYTGEDGFEIMVSPEVGKQLWQTFGSKGVTPCGLGARDTLRLEAGMGLYGQDMNDETTPLEAGLGWLVHLDSKGDFIGRAVLTEQKANGVEKRLVGLEMLAKQIARHDYPILHNGEIMGIVTSGTLSPTLQKAIALGYVPTELAKVGQELEVEVRGKTYGIKVVKKLFYRSEQKPR
B2: Synechocystis sp. PCC 6803 GCS L-protein (dihydrolipoamide dehydrogenase), recombinant (enzyme)
chain: MSQDFDYDLVIIGAGVGGHGAALHAVKCGLKTAIIEAKDMGGTCVNRGCIPSKALLAASGRVREMSDQDHLQQLGIQINGVTFTREAIAAHANDLVSKIQSDLTNSLTRLKVDTIRGWGKVSGPQEVTVIGDNETRILKAKEIMLCPGSVPFVPPGIEIDHKTVFTSDEAVKLETLPQWIAIIGSGYIGLEFSDVYTALGCEVTMIEALPDLMPGFDPEIAKIAERVLIKSRDIETYTGVFATKIKAGSPVEIELTDAKTKEVIDTLEVDACLVATGRIPATKNLGLETVGVETDRRGFIEVNDQMQVIKDGKPVPHLWAVGDATGKMMLAHAASGQGVVAVENICGRKTEVDYRAIPAAAFTHPEISYVGLTEAQAKELGEKEGFVVSTAKTYFKGNSKALAEKETDGIAKVVYRQDTGELLGAHIIGIHASDLIQEAAQAIADRKSVRELAFHVHAHPTLSEVLDEAYKRAV
B3: Synechocystis sp. PCC 6803 GCS P-protein (glycine decarboxylase), recombinant (enzyme)
chain: MPNLEPAVVVPTSEAIAVDLTKLEEKLAPADSFLDRHLGPGETEQRQMLQTLGFDTLGDLIDQAVPPAIRFPRSLQLPASQSEYGAIAQLKSIASKNQVFRSYIGMGYYDTITPPVIQRNILENPGWYTAYTPYQAEIAQGRLEALLNFQTMVMDLTGLEIANASLLDEGTAAAEAMALSYGVSKSKANAFFVAQDCHPQTIEVIKTRANPLGIEVIVGDHHTFSFSTSIFGALLQYPATDGAVYDYRSFIDKAHQHQALVTLAADPLSLTLLTPPGELGADIAVGSTQRFGIPLGYGGPHAAYFATKAEYQRKMPGRIVGVSKDAHGNPALRLALQTREQHIRRDKATSNICTAQVLLAVMASMYGVYHGSTGLKNIALRIHQLTVLLAIGLKRLNYSLNNDYFFDTLRVGVGEQSAPAILKAAEGRGINLRPLVPGEVGISLDETVTVQDLLDLWQVFAGKDNLPFTPEELWSEVKTSFPADLTRQSLYLQDAVFNQYHSETELLRYLHQLESKDLALNTSMIPLGSCTMKLNATAEMMPVTWPEFGKIHPFAPAGQTEGYQILFAQLEAWLGEITGFDAISLQPNAGSQGEYAGLQVIRQYHLSRGEEQRNICLIPESAHGTNPASAVMCGMQVVPVKCDGEGNIDVEDLTSKAEKYGDRLAALMVTYPSTHGVFEATIGTICDIVHRFGGEVYMDGANMNAQVGLCRPADFGADVCHLNLHKTFCIPHGGGGPGMGPIGVKSHLQAFLPRTSLNSTAELQAEDQSIGMISAAPYGSASILVISWMYIAMMGPQGLTKATEVAILSANYMAKRLENYYPILFRGNNELVAHECILDLRPLKKQAAIEVEDVAKRLMDFGFHAPTVSWPVLGTMMVEPTESESLGELDRFCDAMIAIYQEAQAITHGEIDPADNPLKNAPHTAQSLICGEWNHPYSQEEAAYPAPWTKQFKFWPAVGRINNTYGDRHLVCSCEGMEAYKEG
B4: Synechocystis sp. PCC 6803 GCS H-protein, recombinant, lipoylated holoprotein (natural protein)
chain: MELEHPDDLYYLDSHEYVRFDGETATIGLSAFAVDELGDIVFVELPEEGDKVEFEQSMGAVESVKAASDLYSPVTGTVIEKNSALEDQPELLNQDPYGEEGWLIKVRLDDVEDAKEGLMAAGDYRATLETGD
modifications: lipoyl cofactor on the lipoyl-binding lysine (full lipoylation confirmed by native PAGE); residue number not given

How the values were obtained:
native gel or EMSA = biological target: the molecule itself; assay: native gel or EMSA
[1] = biological target: B2; assay: molecular mass cut-off filtration
[2] = biological target: B3; assay: molecular mass cut-off filtration
SEC [3] = biological target: the molecule itself; assay: SEC
[4] = biological target: B1; assay: SEC
SEC [5] = biological target: the molecule itself; assay: SEC; remark: listed apart in the source
[6] = biological target: B1; assay: SEC; remark: listed apart in the source

## B1
Native gel or EMSA
  binding result: binds
[1]
  stoichiometry N: ~3 T per L2 dimer
[2]
  binding result: binds

## B2
SEC [3]
  stoichiometry N: 2

## B3
SEC [3]
  stoichiometry N: 2
[1]
  stoichiometry N: ~0.25 P2 dimer per L2 dimer

## B4
SEC [3]
  stoichiometry N: ~4
[4]
  stoichiometry N: ~4 H per T
SEC [5]
  stoichiometry N: 2
[6]
  stoichiometry N: ~2 H per T
[1]
  stoichiometry N: ~26 H per L2 dimer
[2]
  binding result: binds
